Data from patent publication US7829082B2, “Catheter composition and uses thereof” (Genentech, Inc., priority 2001, dated 2010).
“And” between values parts separate entries of the source, which are not always exact repeats. Equal entries are not always repeated.

Experiments:
[1] = pH of tenecteplase dilutions; assay type: physicochemical; conditions: for observed pH: over 24 hours of storage at ambient conditions
Experimental: (§1) Tenecteplase (TNKASE™ variant of t-PA), obtained from Genentech, Inc. (e.g., U.S. Pat. No. 5,612,029) (50 mg/vial) was reconstituted to 5 mg/mL with 10 mL of SWFI. Using a 3 & 5 cc syringe and 22 G needle, 1, 2, and 5 mL of normal saline (NS) was removed from separate IV bags (500 mL NS, Baxter), in duplicates. The same volume was replaced with the reconstituted drug product to give a final tenecteplase concentration inside the bags of 0.01, 0.02, and 0.05 mg/mL. The bags were then mixed gently by inversions. A 10-mL aliquot of the diluted tenecteplase solution was sampled via the IV port with a 10-cc syringe and dispensed into two 5-cc clean clear glass vials (6 mL in one and the remaining in the other). The IV bags containing the diluted tenecteplase were placed on a bench top under normal fluorescent light at ambient conditions for 24 hours. Additional aliquots (10 mL each) from these IV bags were sampled after 8 and 24 hours of storage.
The pH determination was performed using a RADIOMETER PHM 93™ pH meter and a microelectrode (MI-410™, Microelectrode, Inc.). The pH meter was standardized with pH 4.01 and 7.00 buffer standards prior to measurement at ambient conditions.

[2] = biological target: T1, in vitro clot consisting of plasminogen and fibrin (Homo sapiens, UniProt P00747+P02671+P02675+P02679); test: Clot lysis assay of tenecteplase; assay type: biochemical; conditions: for overall percent specific activity of the recovered protein: over 24 hours at ambient conditions; for Clot lysis (+cent): after centrifugation; for Clot lysis (−cent): before centrifugation
T1 construct: Plasminogen kept frozen at or below −60° C. until use; purchased Biocell (fibrinogen); Calbiochem (thrombin)
From the text: The assay works as follows: Reagents are substances added to a solution of another substance to participate in a chemical reaction. In this case, contents of boat 1 will react with contents of boat 2 to form a standardized clot. Thrombin (boat 2), when mixed with plasminogen and fibrinogen (boat 1), causes the conversion of fibrinogen to fibrin and forms a standardized in vitro clot consisting of plasminogen and fibrin. A test sample of t-PA is then exposed to the clot. T-PA causes the conversion of plasminogen to plasmin, and plasmin then breaks apart the fibrin strands. As the clot breaks apart, there is a change in the absorbance (light) characteristics. The absorbance is plotted versus time.
In such test, thrombin and fibrinogen are mixed together to produce fibrin; plasminogen and tenecteplase are mixed together to produce plasmin; and together the fibrin and plasmin lyse the clot. The test measures the effectiveness of tenecteplase to act with plasminogen to form plasmin and thus lyse the clot.
as §1
All the aliquots of tenecteplase were subjected to the clot lysis assay described above to determine the in vitro bioactivity of tenecteplase in these aliquots. The samples were diluted to two or three different concentrations within assay range (200-500 ng/mL) with the diluent. Tenecteplase was used as an internal reference. All values obtained were normalized to the tenecteplase reference material. The bioactivity was assayed by clot lysis before and after centrifugation.

[3] = Tenecteplase concentration by RP-HPLC before and after centrifugation; assay type: physicochemical; conditions: for Conc. (+cent) by RP-HPLC: after centrifugation; for Conc. (−cent) by RP-HPLC: before centrifugation
Experimental: as §1
The clot lysis activity and protein concentrations (determined by RP-HPLC) were performed before and after centrifugation of each sample aliquot. This was to ensure that any precipitation that was not visible to the naked eye was removed prior to assay for more accurate interpretation of the results. […] At 0.01 mg/mL, the percent change in concentration was 57% immediately after dilution and increased to 71% after 24 hours. […] This observation can be explained, without being limited to any one theory, by a more pronounced protein adsorption at a lower concentration that usually occurs instantly and saturates with time.

[4] = targeted conc. 0.01 mg/mL in 0.9% NaCl IV bag, T = 0
[5] = targeted conc. 0.01 mg/mL in 0.9% NaCl IV bag, T = 24 hours ambient
[6] = targeted conc. 0.02 mg/mL in 0.9% NaCl IV bag, T = 0
[7] = targeted conc. 0.02 mg/mL in 0.9% NaCl IV bag, T = 24 hours ambient
[8] = targeted conc. 0.05 mg/mL in 0.9% NaCl IV bag, T = 0
[9] = targeted conc. 0.05 mg/mL in 0.9% NaCl IV bag, T = 24 hours ambient
[10] = targeted conc. 0.01 mg/mL in 0.9% NaCl IV bag, T = 8 hours ambient
[11] = targeted conc. 0.02 mg/mL in 0.9% NaCl IV bag, T = 8 hours ambient
[12] = targeted conc. 0.05 mg/mL in 0.9% NaCl IV bag, T = 8 hours ambient

T1 sequence (P00747 20-810 limits assumed): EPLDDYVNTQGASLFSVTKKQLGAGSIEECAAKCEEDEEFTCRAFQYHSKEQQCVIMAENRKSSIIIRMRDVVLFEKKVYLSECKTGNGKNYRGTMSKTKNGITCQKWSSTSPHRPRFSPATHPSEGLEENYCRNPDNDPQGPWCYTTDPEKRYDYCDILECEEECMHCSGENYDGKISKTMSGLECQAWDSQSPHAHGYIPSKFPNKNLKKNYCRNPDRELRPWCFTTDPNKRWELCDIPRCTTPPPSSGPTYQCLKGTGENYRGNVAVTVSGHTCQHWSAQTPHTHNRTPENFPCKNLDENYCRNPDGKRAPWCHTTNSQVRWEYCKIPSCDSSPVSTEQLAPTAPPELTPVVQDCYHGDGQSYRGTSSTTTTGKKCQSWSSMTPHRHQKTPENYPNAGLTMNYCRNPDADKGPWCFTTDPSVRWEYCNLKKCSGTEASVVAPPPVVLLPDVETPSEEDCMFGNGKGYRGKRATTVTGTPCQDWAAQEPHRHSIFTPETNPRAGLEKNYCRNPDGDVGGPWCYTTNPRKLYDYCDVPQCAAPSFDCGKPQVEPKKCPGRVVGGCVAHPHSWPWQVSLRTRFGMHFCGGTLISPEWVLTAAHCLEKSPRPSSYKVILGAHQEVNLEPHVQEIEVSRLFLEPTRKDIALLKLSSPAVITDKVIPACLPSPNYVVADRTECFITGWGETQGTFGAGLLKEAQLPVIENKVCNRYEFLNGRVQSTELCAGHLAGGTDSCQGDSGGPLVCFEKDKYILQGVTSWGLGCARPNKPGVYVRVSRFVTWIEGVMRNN
T1 sequence (P02671 36-629 limits assumed): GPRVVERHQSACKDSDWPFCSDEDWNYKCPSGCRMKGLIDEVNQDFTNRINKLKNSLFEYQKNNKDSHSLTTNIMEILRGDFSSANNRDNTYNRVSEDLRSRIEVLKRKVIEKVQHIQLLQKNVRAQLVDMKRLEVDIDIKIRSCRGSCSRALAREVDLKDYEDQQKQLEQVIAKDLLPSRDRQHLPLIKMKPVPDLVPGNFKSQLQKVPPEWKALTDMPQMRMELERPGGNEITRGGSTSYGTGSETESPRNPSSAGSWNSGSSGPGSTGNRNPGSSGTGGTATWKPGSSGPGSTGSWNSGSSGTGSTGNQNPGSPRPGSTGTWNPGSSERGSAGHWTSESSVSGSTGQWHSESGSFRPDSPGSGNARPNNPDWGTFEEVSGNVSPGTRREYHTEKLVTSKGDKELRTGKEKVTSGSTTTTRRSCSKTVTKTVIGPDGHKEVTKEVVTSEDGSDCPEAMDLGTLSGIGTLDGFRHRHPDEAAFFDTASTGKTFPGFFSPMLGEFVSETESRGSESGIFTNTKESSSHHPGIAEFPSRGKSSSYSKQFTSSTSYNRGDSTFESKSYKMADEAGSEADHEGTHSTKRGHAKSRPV
T1 sequence (P02675 45-491 limits assumed): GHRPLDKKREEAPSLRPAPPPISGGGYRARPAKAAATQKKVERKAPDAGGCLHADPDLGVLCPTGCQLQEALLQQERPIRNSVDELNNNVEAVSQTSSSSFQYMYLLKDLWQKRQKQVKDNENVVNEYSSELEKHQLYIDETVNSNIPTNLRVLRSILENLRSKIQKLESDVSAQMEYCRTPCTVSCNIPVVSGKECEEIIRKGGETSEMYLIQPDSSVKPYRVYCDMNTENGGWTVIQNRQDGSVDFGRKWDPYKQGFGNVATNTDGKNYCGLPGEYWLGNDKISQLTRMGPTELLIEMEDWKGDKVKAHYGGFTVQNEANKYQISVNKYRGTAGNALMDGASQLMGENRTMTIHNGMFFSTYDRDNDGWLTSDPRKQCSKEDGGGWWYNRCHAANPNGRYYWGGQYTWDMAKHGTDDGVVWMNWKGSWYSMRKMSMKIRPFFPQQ
T1 sequence (P02679 27-437 isoform P02679-2 limits assumed): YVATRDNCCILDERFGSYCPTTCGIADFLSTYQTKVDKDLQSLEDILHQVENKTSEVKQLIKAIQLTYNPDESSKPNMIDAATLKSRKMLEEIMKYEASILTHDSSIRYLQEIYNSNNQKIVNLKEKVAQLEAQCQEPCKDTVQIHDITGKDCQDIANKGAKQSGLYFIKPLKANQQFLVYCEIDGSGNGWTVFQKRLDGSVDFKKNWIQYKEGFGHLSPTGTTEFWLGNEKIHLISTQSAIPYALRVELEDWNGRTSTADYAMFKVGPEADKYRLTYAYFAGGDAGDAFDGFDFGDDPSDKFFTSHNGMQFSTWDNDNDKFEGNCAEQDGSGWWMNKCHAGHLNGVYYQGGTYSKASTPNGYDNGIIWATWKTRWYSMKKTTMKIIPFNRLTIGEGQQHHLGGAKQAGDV

B1: Tenecteplase: a t-PA variant designated T103N, N117Q, K296A, H297A,R298A,R299A available as TNKASE™ brand from Genentech, Inc.; diluted in 0.9% NaCl (protein, UniProt P00750 36-562, looked up, variant T103N N117Q K296A H297A R298A R299A)
Tissue-type plasminogen …: SYQVICRDEKTQMIYQQHQSWLRPVLRSNRVEYCWCNSGRAQCHSVPVKSCSEPRCFNGGTCQQALYFSDFVCQCPEGFAGKCCEIDTRATCYEDQGISYRGNWSTAESGAECTNWQSSALAQKPYSGRRPDAIRLGLGNHNYCRNPDRDSKPWCYVFKAGKYSSEFCSTPACSEGNSDCYFGNGSAYRGTHSLTESGASCLPWNSMILIGKVYTAQNPSAQALGLGKHNYCRNPDGDAKPWCHVLKNRRLTWEYCDVPSCSTCGLRQYSQPQFRIKGGLFADIASHPWQAAIFAAAAASPGERFLCGGILISSCWILSAAHCFQERFPPHHLTVILGRTYRVVPGEEEQKFEVEKYIVHKEFDDDTYDNDIALLQLKSDSSRCAQESSVVRTVCLPPADLQLPDWTECELSGYGKHEALSPFYSERLKEAHVRLYPSSRCTSQHLLNRTVTDNMLCAGDTRSGGPQANLHDACQGDSGGPLVCLNDGRMTLVGIISWGLGCGQKDVPGVYTKVTNYLDWIRDNMRP
- observed pH ([1]; 0.01 mg/mL in NS): 6.7-6.8
- observed pH ([1]; 0.02 mg/mL in NS): 6.8-6.9
- observed pH ([1]; 0.05 mg/mL in NS): 7.1-7.2
- pH [1, 4]: 6.70 and 6.73
- pH [1, 5]: 6.77 and 6.71
- pH [1, 6]: 6.93 and 6.83
- pH [1, 7]: 6.86 and 6.90
- pH [1, 8]: 7.12 and 7.15
- pH [1, 9]: 7.10 and 7.07
- overall percent specific activity of the recovered protein ([2]; 0.01 mg/mL): ≥ 100%
- overall percent specific activity of the recovered protein ([2]; 0.02 mg/mL): ≥ 92%
- overall percent specific activity of the recovered protein ([2]; 0.05 mg/mL): ≥ 80%
- Lytic activity in clot lysis effectiveness test ([2]; diluted down to 0.01 mg/mL in normal saline): lytically active
- Lytic activity after storage ([2]; diluted to 0.01, 0.02, and 0.05% mg/mL in 0.9% NaCl IV bags (500 mL), after 24 hours of storage at ambient conditions): lytically active
- % Specific Activity [2, 4]: 100%
- Clot lysis (+cent) [2, 4]: 0.004 mg/mL
- Clot lysis (−cent) [2, 4]: 0.006 mg/mL
- % Specific Activity [2, 10]: 125% and 120%
- Clot lysis (+cent) [2, 10]: 0.005 mg/mL and 0.006 mg/mL
- Clot lysis (−cent) [2, 10]: 0.007 mg/mL and 0.008 mg/mL
- % Specific Activity [2, 5]: 100% and 120%
- Clot lysis (+cent) [2, 5]: 0.005 mg/mL and 0.006 mg/mL
- Clot lysis (−cent) [2, 5]: 0.007 mg/mL
- % Specific Activity [2, 6]: 92%
- Clot lysis (+cent) [2, 6]: 0.012 mg/mL
- Clot lysis (−cent) [2, 6]: 0.015 mg/mL
- % Specific Activity [2, 11]: 92%
- Clot lysis (+cent) [2, 11]: 0.012 mg/mL
- Clot lysis (−cent) [2, 11]: 0.015 mg/mL and 0.013 mg/mL
- % Specific Activity [2, 7]: 100% and 92%
- Clot lysis (+cent) [2, 7]: 0.013 mg/mL and 0.012 mg/mL
- Clot lysis (−cent) [2, 7]: 0.015 mg/mL and 0.016 mg/mL
- % Specific Activity [2, 8]: 82% and 78%
- Clot lysis (+cent) [2, 8]: 0.037 mg/mL and 0.036 mg/mL
- Clot lysis (−cent) [2, 8]: 0.040 mg/mL and 0.041 mg/mL
- % Specific Activity [2, 12]: 76% and 82%
- Clot lysis (+cent) [2, 12]: 0.034 mg/mL and 0.037 mg/mL
- Clot lysis (−cent) [2, 12]: 0.039 mg/mL
- % Specific Activity [2, 9]: 93% and 91%
- Clot lysis (+cent) [2, 9]: 0.040 mg/mL
- Clot lysis (−cent) [2, 9]: 0.043 mg/mL
- % Change in Conc. (±cent) [3, 4]: 57%
- Conc. (+cent) by RP-HPLC [3, 4]: 4000 ng/mL
- Conc. (−cent) by RP-HPLC [3, 4]: 7000 ng/mL
- % Change in Conc. (±cent) [3, 10]: 57% and 63%
- Conc. (+cent) by RP-HPLC [3, 10]: 4000 ng/mL and 5000 ng/mL
- Conc. (−cent) by RP-HPLC [3, 10]: 7000 ng/mL and 8000 ng/mL
- % Change in Conc. (±cent) [3, 5]: 71%
- Conc. (+cent) by RP-HPLC [3, 5]: 5000 ng/mL
- Conc. (−cent) by RP-HPLC [3, 5]: 7000 ng/mL
- % Change in Conc. (±cent) [3, 6]: 76%
- Conc. (+cent) by RP-HPLC [3, 6]: 13000 ng/mL
- Conc. (−cent) by RP-HPLC [3, 6]: 17000 ng/mL
- % Change in Conc. (±cent) [3, 11]: 81%
- Conc. (+cent) by RP-HPLC [3, 11]: 13000 ng/mL
- Conc. (−cent) by RP-HPLC [3, 11]: 16000 ng/mL
- % Change in Conc. (±cent) [3, 7]: 81%
- Conc. (+cent) by RP-HPLC [3, 7]: 13000 ng/mL
- Conc. (−cent) by RP-HPLC [3, 7]: 16000 ng/mL
- % Change in Conc. (±cent) [3, 8]: 94% and 98%
- Conc. (+cent) by RP-HPLC [3, 8]: 45000 ng/mL and 46000 ng/mL
- Conc. (−cent) by RP-HPLC [3, 8]: 48000 ng/mL and 47000 ng/mL
- % Change in Conc. (±cent) [3, 12]: 96%
- Conc. (+cent) by RP-HPLC [3, 12]: 45000 ng/mL
- Conc. (−cent) by RP-HPLC [3, 12]: 47000 ng/mL
- % Change in Conc. (±cent) [3, 9]: 90% and 96%
- Conc. (+cent) by RP-HPLC [3, 9]: 43000 ng/mL and 44000 ng/mL
- Conc. (−cent) by RP-HPLC [3, 9]: 48000 ng/mL and 46000 ng/mL
